Tests used:
[1] = biological target: T1, Human PD-1 on CHO-S cells (human, UniProt Q15116 25-288); assay: FACS competition with biotinylated BMK3 (1 ug/mL) on CHO-S.hPro1.C6 cells, SA-PE
T1 construct: whole, on cells; also called CHO-S.hPro1.C6; WBP305.CHO-S.hPro1.C6
Method: The human PD-1 transfected cells CHO-S.hPro1.C6 were transferred into 96-well U-bottom plates at a density of 1˜2×10⁵ cells/well. Serial dilutions of testing antibodies (4-fold serially diluted from 133.3 nM to 0.008 nM) were mixed with constant concentration of biotinylated BMK1 (1 μg/mL) or biotinylated BMK3 (1 μg/mL), respectively. Then the mixture was added to the cells in 96-well plates and incubated at 4° C. for 1 hour. After washing with 1×PBS/1% BSA, the secondary antibody SA-PE was applied and incubated with cells at 4° C. for 1 hour. The cells were then washed and resuspended in 1×PBS/1% BSA. MFI of the cells was measured by a flow cytometer and analyzed by FlowJo. Data were shown FIG. 9.

[2] = biological target: T2, Human PD-1 extracellular domain, mFc tag (human, UniProt Q15116 25-170); assay: ELISA competition on coated hPro1.ECD.mFc; competitor hPro1L2.ECD.His; experiment 2
T2 construct: extracellular domain; also called hPro1.ECD.mFc; hPD-1.ECD.mFc; not shown: mouse Fc tag at C-terminus
Method: Plates were pre-coated with 1 μg/mL, 100 μL per well of human PD-1 ECD (hPro1.ECD.mFc) at 4° C. overnight. After 1-hour blocking using 200 μL of 1×PBS/2% BSA, constant concentration of his tagged human PD-L2 ECD (hPro1L2.ECD.His) and various concentrations of testing antibodies (3-fold serially diluted from 66.7 nM to 0.003 nM) were pre-mixed and added to the plates. After 2-hour incubation at ambient temperature, the binding of the ligand to the immobilized protein was detected by HRP-labeled goat anti-His antibody. The color was developed by dispensing 100 μL of TMB substrate, and then stopped by 100 μL of 2N HCl. The absorbance was read at 450 nm and 540 nm using a microplate spectrophotometer.

[3] = biological target: Human PD-1 (soluble analyte in SPR, Table 11) (human, UniProt Q15116 25-167); assay: SPR Biacore 8K; antibody captured on anti-human Fc chip, PD-1 injected; 1:1 fit
Method: (§1) Antibody binding affinity to human, mouse and cynomolgus PD-1 was detected using Biacore 8K. W3056-AP17R1-2H2-Z1-R1-14A1-FC (IgG4.SP) was captured on an anti-human Fc IgG antibody immobilized CM5 sensor chip (GE). Human, mouse and cynomolgus PD-1 at different concentrations were injected over the sensor chip at a flow rate of 30 uL/min for an association phase of 120 s, followed by 150 s dissociation. The chip was then regenerated by 10 mM Glycine pH 1.5 after each binding cycle.
(§2) The sensorgrams of blank surface and buffer channel were subtracted from the test sensorgrams. The experimental data was fitted by 1:1 model using Langmiur analysis. Molecular weight of 40, 45 and 40 kDa was used to calculate the molar concentration of analyte human, mouse and cynomolgus PD-1 respectively.

[4] = biological target: T3, Mouse PD-1 (soluble analyte in SPR, Table 11) (mouse, UniProt Q02242 25-167, limits assumed); assay: as above
T3 sequence (looked up): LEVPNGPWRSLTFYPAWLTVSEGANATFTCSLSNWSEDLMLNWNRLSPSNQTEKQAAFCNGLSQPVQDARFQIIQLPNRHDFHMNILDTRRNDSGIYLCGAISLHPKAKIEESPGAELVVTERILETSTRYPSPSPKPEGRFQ
Method: as §1, §2

[5] = biological target: T4, Cynomolgus PD-1 (soluble analyte in SPR, Table 11) (cynomolgus, UniProt B0LAJ3 25-170); assay: as above
T4 construct: also called cyno PD-1
Method: as §1, §2

[6] = biological target: T5, Cynomolgus PD-1 extracellular domain, hFc tag (cynomolgus, UniProt B0LAJ3 25-170); assay: ELISA competition on coated cynoPro1.ECD.hFc; competitor cynoProL1.ECD.hFc.biotin 2.5 µg/mL; experiment 2
T5 construct: Bought; also called cynoPro1.ECD.hFc; cyno PD-1 ECD protein
Method: Plates were pre-coated with 1 μg/mL, 100 μL per well of cyno PD-1 ECD protein (cynoPro1.ECD.hFc) at 4° C. overnight. After 1-hour blocking using 200 μL of 1×PBS/2% BSA, constant concentration of biotinylated cyno PD-L1 (cynoProL1.ECD.hFc.biotin) (2.5 μg/mL) and various concentrations of testing antibody, positive and negative control (3-fold serially diluted from 133.4 nM to 0.007 nM) were pre-mixed and added to the plates. The plates were incubated at ambient temperature for 1 hour. The binding of ligand to the immobilized protein was detected by streptavidin-HRP. The color was developed by dispensing 100 μL of TMB substrate, and then stopped by 100 μL of 2M HCl. The absorbance was read at 450 nm and 540 nm using a microplate spectrophotometer.

Sequence of Human PD-1 (soluble analyte in SPR, Table 11) (Q15116 25-167 limits assumed): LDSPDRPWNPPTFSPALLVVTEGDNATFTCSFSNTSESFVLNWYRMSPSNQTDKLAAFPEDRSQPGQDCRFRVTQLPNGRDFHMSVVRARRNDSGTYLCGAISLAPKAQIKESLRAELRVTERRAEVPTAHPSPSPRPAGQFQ
T4 sequence (B0LAJ3 entry or part of it limits assumed): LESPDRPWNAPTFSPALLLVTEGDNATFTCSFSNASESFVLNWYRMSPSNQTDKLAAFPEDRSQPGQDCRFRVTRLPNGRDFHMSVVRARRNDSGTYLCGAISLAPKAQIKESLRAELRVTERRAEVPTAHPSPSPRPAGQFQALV
T2 sequence (Q15116 25-170): as the sequence (B0LAJ3 entry or part of it limits assumed) above, with E2D, A10P, L19V, A35T, R75Q, A144T counted along it
T1 sequence (Q15116 25-288): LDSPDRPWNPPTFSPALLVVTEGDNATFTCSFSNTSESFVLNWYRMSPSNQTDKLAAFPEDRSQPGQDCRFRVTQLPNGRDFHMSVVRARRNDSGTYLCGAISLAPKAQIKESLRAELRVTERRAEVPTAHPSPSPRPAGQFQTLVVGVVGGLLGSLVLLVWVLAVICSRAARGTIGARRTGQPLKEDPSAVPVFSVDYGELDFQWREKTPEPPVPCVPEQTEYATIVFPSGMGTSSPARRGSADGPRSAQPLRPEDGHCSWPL
T5 sequence (B0LAJ3 entry or part of it limits assumed): as the sequence (B0LAJ3 entry or part of it limits assumed) above

- IC50 (read off the curve) [1]: ~20 nM
- IC50 [2]: 0.886 nM
- Kd [3]: 3.45 nM
- koff [3]: 0.000857 s⁻¹
- kon [3]: 248000 M⁻¹ s⁻¹
- Kd [4]: 28.7 nM
- koff [4]: 0.00422 s⁻¹
- kon [4]: 147000 M⁻¹ s⁻¹
- Kd [5]: 8.53 nM
- koff [5]: 0.00177 s⁻¹
- kon [5]: 208000 M⁻¹ s⁻¹
- IC50 [6]: 0.853 nM
B1: W3056-AP17R1-2H2-Z1-R1-14A1-FC(IgG4.SP) (Fc fusion)
chain: QVQLVESGGGVVQPGGSLRLSCAASDSIDSLVNMGWYRQAPGKQRELVALIATYITHYADFVKGRFTISRDNSKNTLYLQMNSLRAEDTAVYYCYARNIIVDYWGQGTLVTVSS
notes: also called W3056 lead antibody (VHH-Fc(hIgG4) fusion); not shown: Fc of human IgG4 (hIgG4.S228P)

— patent publication US20240301067A1 (WUXI BIOLOGICS IRELAND, published 2024)
